Experimental data taken from patent US20140377289A1, “Metallodrugs Having Improved Pharmacological Properties, and Methods of Manufacture and Use Thereof” (MetalloPharm, LLC, priority 2011, published 2014).
Where no end group is shown, it is not given here. [ ]: non-standard residue; d: D form. Cha = N[C@@H](CC1CCCCC1)C(=O)O

Columns and labels:
[1] = target: T1, S. aureus sortase A (S. aureus), Q2FV99; assay: apparent binding affinity (IC50) for S. aureus sortase A; assay not described
T1 chain: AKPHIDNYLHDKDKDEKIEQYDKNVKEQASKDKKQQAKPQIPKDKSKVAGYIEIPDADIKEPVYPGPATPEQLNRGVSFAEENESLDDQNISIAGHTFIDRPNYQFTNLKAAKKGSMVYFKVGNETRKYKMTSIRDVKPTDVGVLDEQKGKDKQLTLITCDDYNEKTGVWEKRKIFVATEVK

[2] = target: HCV protease (hepatitis C virus (HCV)); assay: cell-based or functional assay
[3] = target: HCV protease (hepatitis C virus (HCV)); assay: apparent binding affinity for HCV protease; method not described
[4] = target: HCV protease (hepatitis C virus (HCV)); assay: inhibition constant for HCV protease (FIG. 1, left); method not described
[5] = target: T2, B. anthracis lethal factor (B. anthracis), P15917
T2 chain: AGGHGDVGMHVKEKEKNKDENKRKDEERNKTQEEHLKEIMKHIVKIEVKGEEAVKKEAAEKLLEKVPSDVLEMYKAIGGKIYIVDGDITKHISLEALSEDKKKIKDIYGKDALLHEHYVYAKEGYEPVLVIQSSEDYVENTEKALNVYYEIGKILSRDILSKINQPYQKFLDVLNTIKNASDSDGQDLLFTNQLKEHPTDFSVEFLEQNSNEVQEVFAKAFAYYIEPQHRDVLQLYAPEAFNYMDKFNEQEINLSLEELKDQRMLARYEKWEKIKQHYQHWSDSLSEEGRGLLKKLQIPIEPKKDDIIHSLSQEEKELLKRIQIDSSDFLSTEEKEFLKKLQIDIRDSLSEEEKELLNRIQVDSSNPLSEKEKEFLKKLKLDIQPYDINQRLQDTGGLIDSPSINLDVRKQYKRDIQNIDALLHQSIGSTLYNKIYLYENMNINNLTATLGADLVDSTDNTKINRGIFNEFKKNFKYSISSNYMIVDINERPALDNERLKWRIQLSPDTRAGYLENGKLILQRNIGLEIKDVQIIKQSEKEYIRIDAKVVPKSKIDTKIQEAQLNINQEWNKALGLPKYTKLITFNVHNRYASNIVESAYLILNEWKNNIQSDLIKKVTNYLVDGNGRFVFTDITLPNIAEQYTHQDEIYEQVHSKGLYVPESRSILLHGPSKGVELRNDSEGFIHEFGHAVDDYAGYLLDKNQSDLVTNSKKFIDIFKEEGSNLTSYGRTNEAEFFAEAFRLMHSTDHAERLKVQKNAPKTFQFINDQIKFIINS

[6] = target: T2, B. anthracis lethal factor (B. …); assay: cell-based or functional assay
[7] = target: T3, metalloproteinase ECE-1 protease, P42892; assay: cell-based or functional assay
T3 chain: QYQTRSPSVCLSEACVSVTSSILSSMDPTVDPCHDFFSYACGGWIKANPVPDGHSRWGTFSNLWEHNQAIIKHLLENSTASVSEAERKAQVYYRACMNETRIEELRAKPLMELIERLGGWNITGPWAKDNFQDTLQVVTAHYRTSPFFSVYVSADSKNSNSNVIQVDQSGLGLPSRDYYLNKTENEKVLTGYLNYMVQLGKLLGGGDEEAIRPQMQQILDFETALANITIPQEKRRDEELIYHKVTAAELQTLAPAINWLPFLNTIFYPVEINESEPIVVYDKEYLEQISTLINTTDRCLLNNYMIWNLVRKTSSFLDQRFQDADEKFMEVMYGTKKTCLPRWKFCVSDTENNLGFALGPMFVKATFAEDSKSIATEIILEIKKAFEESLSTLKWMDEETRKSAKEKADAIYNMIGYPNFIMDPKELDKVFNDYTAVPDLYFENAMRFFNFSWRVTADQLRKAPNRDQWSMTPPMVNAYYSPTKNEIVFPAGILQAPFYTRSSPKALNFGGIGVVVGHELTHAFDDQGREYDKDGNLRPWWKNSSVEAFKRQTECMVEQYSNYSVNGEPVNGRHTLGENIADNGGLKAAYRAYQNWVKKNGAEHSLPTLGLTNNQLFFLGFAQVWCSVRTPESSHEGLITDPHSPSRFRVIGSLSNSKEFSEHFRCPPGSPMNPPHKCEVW

[8] = target: T3, metalloproteinase ECE-1 protease, P42892; assay: apparent binding affinity for ECE-1; method not described
[9] = target: HCV protease (hepatitis C virus (HCV)); assay: affinity of metallopeptide for HCV protease; method not described

## GGHGLPETG (modifications not checked) [Cu-…]
[1]
  IC50: > 100 µM

## GGHGD[dE]LI[Cha]C-OH (also: Cu complex) [Cu-GGHGDeLI(Cha)C-CO2^-]
[2]
  kinact: 0.0014 min⁻¹
  rate constant for inactivation kinact: < 0.083 h⁻¹
[3]
  Ka: 2e+06 M⁻¹
[4]
  Ki: 0.5 µM

## KGHK (modifications not checked) [Cu-KGHK]
[5]
  Ka: 125000 M⁻¹
[6]
  kinact: 0.035 min⁻¹

## GGHLPETG (modifications not checked) [Cu-GGHLPETG]
[1]
  IC50: > 100 µM

## GGHGGDF (modifications not checked) [Cu-GGHGGDF]
[7]
  kinact: 0.5 min⁻¹
[8]
  Ka: 80000 M⁻¹

## GGHD[dE]LI[Cha]CP[Cha]DL [Gly-Gly-His-Asp-D-Glu-Leu-Ile-Cha-Cys-Pro-Cha-Asp-Leu]
[9]
  affinity: 10 nM

## GGHGD[dE]LI[Cha]T (also: Cu complex) [Cu-GGHGDeLI(Cha)T]
[2]
  kinact: 0.042 min⁻¹
[3]
  Ka: 33000 M⁻¹

## GGHLPET (modifications not checked) [Cu-GGHLPET]
[1]
  IC50: > 100 µM

## GCHP (modifications not checked) [Cu-GCHP]
[5]
  Ka: 45000 M⁻¹
[6]
  kinact: 0.077 min⁻¹

## GGHGLPET (modifications not checked) [Cu-GGHGLPET]
[1]
  IC50: > 100 µM
